In US20250092135A1 (NANJING LEADS BIOLABS, published 2025):

Assays:
[1] = target: T1, human MUC16 protein (ECT_TM huMuc16) on 293T cells (human); assay: flow cytometry, 293T/hMUC16 cells, PE anti-human IgG Fc secondary, MFI; EC50 table under the plot, unit from the axis Conc.(nM)
T1 chain: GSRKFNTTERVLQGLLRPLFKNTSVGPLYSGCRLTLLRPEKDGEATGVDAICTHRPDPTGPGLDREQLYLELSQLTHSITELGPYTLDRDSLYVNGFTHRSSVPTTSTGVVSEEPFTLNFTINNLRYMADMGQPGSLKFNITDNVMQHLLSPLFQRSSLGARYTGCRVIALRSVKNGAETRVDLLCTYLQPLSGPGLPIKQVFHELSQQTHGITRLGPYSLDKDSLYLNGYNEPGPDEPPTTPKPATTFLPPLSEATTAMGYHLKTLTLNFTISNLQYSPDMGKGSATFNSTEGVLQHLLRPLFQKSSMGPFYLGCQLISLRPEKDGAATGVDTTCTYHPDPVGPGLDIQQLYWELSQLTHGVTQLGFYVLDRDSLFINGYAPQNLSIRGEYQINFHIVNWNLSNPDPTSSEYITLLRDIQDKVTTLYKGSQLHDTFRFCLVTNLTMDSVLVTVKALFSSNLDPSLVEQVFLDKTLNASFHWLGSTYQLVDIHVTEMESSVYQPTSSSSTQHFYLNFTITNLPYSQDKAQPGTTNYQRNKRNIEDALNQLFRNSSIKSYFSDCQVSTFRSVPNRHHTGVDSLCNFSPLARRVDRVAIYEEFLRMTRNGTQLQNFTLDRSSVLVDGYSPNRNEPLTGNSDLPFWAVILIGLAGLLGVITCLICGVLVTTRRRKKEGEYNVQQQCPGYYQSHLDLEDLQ
Procedure: The serially diluted anti-human MUC16 antibodies (at an initial concentration of 200 nM, 4-fold dilution, 8 points in total) obtained in the present application were added to the cells, and the cells were incubated at 4° C. for 30 min. The cells were washed twice with PBS, and then fluorescent secondary antibody R-PE-conjugated AffiniPure Goat Anti-Human IgG, Fcγ Fragment Specific (Jackson ImmunoResearch, Cat #109-116-098) was added. The cells were incubated at 4° C. for 30 min. The cells were washed twice with PBS and then resuspended, and finally, fluorescence signals were detected using a BD Accuri C5 (BD Bioscience) flow cytometer.

Rhesus monkey MUC16-His = target: T2, Rhesus monkey MUC16-His (rhesus monkey); assay: BLI (ForteBio Octet RED96), antibody on AHC sensor, 50 nM antigen, 1:1 model
T2 construct: The entry includes the C-terminal 6xHis tag; also called membrane-proximal end of the extracellular region of the rhesus monkey MUC16 protein
T2 chain: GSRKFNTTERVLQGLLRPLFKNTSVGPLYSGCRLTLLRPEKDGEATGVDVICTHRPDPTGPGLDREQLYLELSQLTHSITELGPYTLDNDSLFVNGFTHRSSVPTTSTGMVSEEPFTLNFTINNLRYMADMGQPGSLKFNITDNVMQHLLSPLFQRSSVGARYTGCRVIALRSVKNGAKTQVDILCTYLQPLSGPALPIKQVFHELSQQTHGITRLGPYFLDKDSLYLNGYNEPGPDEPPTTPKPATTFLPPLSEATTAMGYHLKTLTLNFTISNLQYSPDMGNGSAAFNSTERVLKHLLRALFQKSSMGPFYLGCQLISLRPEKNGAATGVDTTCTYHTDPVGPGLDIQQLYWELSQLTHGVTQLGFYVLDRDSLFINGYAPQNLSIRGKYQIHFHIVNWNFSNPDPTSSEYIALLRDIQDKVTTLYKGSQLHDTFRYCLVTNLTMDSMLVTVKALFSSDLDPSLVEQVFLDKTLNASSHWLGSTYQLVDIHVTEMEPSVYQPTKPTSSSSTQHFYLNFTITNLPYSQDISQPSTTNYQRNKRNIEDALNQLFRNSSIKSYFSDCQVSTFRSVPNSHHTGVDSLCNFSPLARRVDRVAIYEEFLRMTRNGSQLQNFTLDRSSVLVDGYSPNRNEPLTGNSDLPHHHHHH
Text: (§1) The binding affinity of the anti-MUC-16 antibodies for the membrane-proximal end of the extracellular region of the human MUC16 protein (human MUC16-His, Table 26) and the membrane-proximal end of the extracellular region of the rhesus monkey MUC16 protein (rhesus monkey MUC16-His, Table 26) was detected by ForteBio Octet RED96, respectively. According to the manufacturer's instructions, an AHC sensor (ForteBio, Cat #18-5060) was placed in a running buffer (lx PBS, Hyclone, Cat #SH30256.01, containing 0.02% Tween 20, pH 7.0) and pre-equilibrated at room temperature for 10 min. In a 96-well plate, the kinetic assay was performed according to the following steps: a) equilibrating the baseline for 100 s with the running buffer; b) diluting the anti-MUC-16 antibodies with the running buffer to 5 μg/mL, immobilizing for 200 s, and stopping; c) equilibrating the baseline for 300 s with the running buffer; and d) diluting the human or rhesus monkey MUC16 protein with the running buffer to 50 nM, binding for 200 s, and dissociating for 600 s. The experimental data were fitted and calculated using a Fortebio Data Analysis software 1:1 binding model.

Human MUC16-His = target: T3, Human MUC16-His (human); assay: as above
T3 construct: The entry includes the C-terminal 6xHis tag; also called membrane-proximal end of the extracellular region of the human MUC16 protein; Human MUC16 protein
T3 chain: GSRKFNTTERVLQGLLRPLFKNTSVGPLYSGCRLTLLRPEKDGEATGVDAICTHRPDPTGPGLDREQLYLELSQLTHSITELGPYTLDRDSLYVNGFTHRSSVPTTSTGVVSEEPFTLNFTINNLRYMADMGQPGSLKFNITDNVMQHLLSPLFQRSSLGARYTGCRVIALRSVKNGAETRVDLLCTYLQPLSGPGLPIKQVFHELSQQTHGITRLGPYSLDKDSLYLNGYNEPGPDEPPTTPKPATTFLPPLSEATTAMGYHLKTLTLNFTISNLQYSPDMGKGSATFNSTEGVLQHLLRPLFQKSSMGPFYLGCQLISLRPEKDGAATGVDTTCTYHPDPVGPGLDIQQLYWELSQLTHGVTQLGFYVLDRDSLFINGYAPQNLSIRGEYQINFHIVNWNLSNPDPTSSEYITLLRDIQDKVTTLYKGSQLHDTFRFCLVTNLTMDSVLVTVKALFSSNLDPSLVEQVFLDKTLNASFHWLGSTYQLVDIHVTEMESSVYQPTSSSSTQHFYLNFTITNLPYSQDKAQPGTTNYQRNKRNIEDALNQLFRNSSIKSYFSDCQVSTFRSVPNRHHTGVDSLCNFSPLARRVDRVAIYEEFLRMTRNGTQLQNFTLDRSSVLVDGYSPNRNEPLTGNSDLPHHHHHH
Text: as §1

EC50 [1]: 12.9 nM | Kd (Rhesus monkey MUC16-His): 1.03 nM | koff (Rhesus monkey MUC16-His): 0.000826 s⁻¹ | kon (Rhesus monkey MUC16-His): 803000 M⁻¹ s⁻¹ | Kd (Human MUC16-His): 0.921 nM | koff (Human MUC16-His): 0.000245 s⁻¹ | kon (Human MUC16-His): 266000 M⁻¹ s⁻¹
B1: anti-MUC16 antibody 776.1(C33S) (antibody, human IgG1, kappa, L234A L235A, V domains shown)
VH: EVQLQQSGPELVKPGASVKISCKASGYTFTDYNIHWVKQSHGKILEWIGYIYPYNGVSDYNQNFKSKATLIVDNSSNTAYMELRSLTSEDSAVYYCARWDFGSGYYFDYWGQGTTLTVSS
VL: QIVLSQSPAILFASPGETVTMTCRASSSVIYMSWNQQKPGSSPKPWIYGTSTLASGVPTRFSGSGSGTSYSLTISRVEAEDAATYYCQQWSSNPFTFGSGTKLEIKR
